In US20110136738A1, “Alternatively Transcribed Genes Associated with Schizophrenia” (University College Dublin, National University of Ireland, …, priority 2008, published 2011):
Entries after “also recorded” stand apart in the source; their conditions may differ.

Test system: isolation reared animals
Assay: Prepulse inhibition of startle in isolation reared animals (ICV midkine)
Assay type: in vivo, male Wistar rats
Settings: isolation reared rats, four daily ICV injections of midkine 2 μg/day, compared to vehicle-treated animals
Description: Isolation-reared animals (isolated animals) were housed singly in non-soft bottom cages (22.5 cm×34.5 cm×17 cm), from time of weaning (postnatal day 25, P25) until completion of behavioral testing. A standard 12 hour light/dark cycle was observed and food and water was provided ad libitum. Noise and visual stimuli were kept to an absolute minimum as described previously by Geyer et al., 1993. Socially reared animals (social animals) were housed in groups of 4 from time of weaning until surgical implantation of a guide cannula on P80, there after they were housed singly. […] The startle apparatus consisted of a sound attenuating chamber (54.6×50.8×30.5 cm), a startle platform which measured the startle response, and an audio stimulator, controlled by the startle reflex software (MED Associates Inc.). […] The resulting movement of the rats was measured during 100 ms after startle stimulus onset, and then rectified, amplified and analyzed by computer and the maximal response and average response over the 100 ms period determined. Baseline startle amplitude was determined as the mean response of all startle trials. The percent prepulse inhibition was determined according to the following formula: 100-([startle amplitude at prepulse trial/startle amplitude at startle trial]×100%). The effect on baseline startle amplitude was analyzed by a one-way analysis of variance (ANOVA). […]

B1: midkine (protein, UniProt P21741 21-143, looked up)
Midkine: VAKKKDKVKKGGPGSECAEWAWGPCTPSSKDCGVGFREGTCGAQTQRIRCRVPCNWKKEFGADCKYKFENWGACDGGTGTKVRQGTLKKARYNAQCQETIRVTKPCTPKTKAKAKAKKGKGKD
- prepulse inhibition (PPI) of startle: reverses the deficit observed in prepulse inhibition of startle; also recorded: reversed PPI behavior back to normal
- prepulse inhibition (PPI) of startle (listed as Midkine): reversed the deficit observed in prepulse inhibition of startle; also recorded: reversed PPI behavior back to normal
